Reference: patent US20120128678A1 (FORERUNNER PHARMA RESEARCH, published 2012)
Values belong to the binder of their own block, whether it stands above or below them.

Experiments:
[1] = target: T1, human TMPRSS11E, full-length, forced expression on cells (DG44, Ba/F3, SK-Hep-1) (human, UniProt Q9UL52 1-423); assay: immunoblot of BaF/TMPRSS11E cell lysate, 0.5 ug/mL EA230 (FIG. 7)
T1 construct: also called DESC1; BaF/TMPRSS11E; not shown: C-terminal tag added through the antisense primer
T1 sequence: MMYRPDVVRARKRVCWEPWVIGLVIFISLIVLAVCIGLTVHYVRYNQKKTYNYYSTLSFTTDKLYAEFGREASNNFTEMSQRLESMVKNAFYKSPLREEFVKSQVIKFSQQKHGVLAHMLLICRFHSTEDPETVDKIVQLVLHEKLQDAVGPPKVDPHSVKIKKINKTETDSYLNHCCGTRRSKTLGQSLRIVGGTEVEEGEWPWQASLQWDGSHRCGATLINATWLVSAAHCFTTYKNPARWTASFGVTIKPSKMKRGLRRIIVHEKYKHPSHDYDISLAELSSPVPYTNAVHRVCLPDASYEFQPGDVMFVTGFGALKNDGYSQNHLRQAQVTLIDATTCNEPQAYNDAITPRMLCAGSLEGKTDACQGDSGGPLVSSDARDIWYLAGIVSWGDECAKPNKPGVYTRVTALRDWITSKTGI
Method: (§1) Cell lysates of Ba/F3, TMPRSS11E-expressing Ba/F3 (BaF/TMPRSS11E), a TMPRSS11E-negative cancer cell line VMRC-LCD, and TMPRSS11E-positive cancer cell lines h2009 and ME-180 were prepared. 50 μL of NP-40 Lysis Buffer (0.5% (v/v) Nonidet P40, 20 mM Tris-HCl (pH 7.5), 150 mM NaCl, 5 mM EDTA) was added to 1×10⁶ cells and left at 4° C. for 15 minutes. Then, after centrifugation (14,000 rpm, 15 min), the supernatant was used as lysates. The lysates corresponding to 2×10⁵ cells were separated by SDS-PAGE and then transferred to Immobilon-P (Millipore Corp.) using Trans-Blot SD Semi-Dry Electrophoretic Transfer Cell (Bio-Rad Laboratories, Inc.). The membrane was gently washed with TBS-T (0.05% Tween 20, TBS) and then shaken for 1 hour in TBS-T containing 5% skim milk. After shaking for approximately 10 minutes in TBS-T, 0.5 μg/mL EA230 antibodies diluted with TBS-T containing 1% skim milk were added to the membrane, which was then shaken for 1 hour. […] Since the presumed molecular weight of TMPRSS11E is 47.7 kDa, it seemed that TMPRSS11E that underwent sugar chain modification was probably detected. This means that TMPRSS11E can be detected specifically by immunoblot using EA230.

[2] = target: T2, fusion protein of MBP and TMPRSS11E SEA domain (human, UniProt Q9UL52 42-191); assay: screening ELISA on immobilized MBP-SEA domain fusion protein
T2 construct: Expressed in E. coli, purified and immobilized for the screening ELISA; also called fusion proteins of MBP and SEA domains
T2 sequence: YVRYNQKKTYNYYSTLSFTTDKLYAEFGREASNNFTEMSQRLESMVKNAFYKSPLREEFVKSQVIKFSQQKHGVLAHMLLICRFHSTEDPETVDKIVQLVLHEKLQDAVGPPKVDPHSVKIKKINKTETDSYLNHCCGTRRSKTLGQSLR
Method: This fusion protein was used to immunize Balb/c mice or MRL/lpr mice. Hybridomas were established in the same way as above. New England Biolabs Inc. pMALc2x vectors were used in screening, which was performed by ELISA using fusion proteins of MBP and SEA domains that were expressed in E. coli, then purified, and immobilized on a solid phase. […] The nucleotide sequence of the EA230 heavy chain variable region is shown in SEQ ID NO: 53, and its amino acid sequence is shown in SEQ ID NO: 54. The nucleotide sequence of the EA230 light chain variable region is shown in SEQ ID NO: 55, and its amino acid sequence is shown in SEQ ID NO: 56.

[3] = target: T3, human TMPRSS11E, endogenous, on cancer cell lines and in clinical cancer tissues (human, UniProt Q9UL52 1-423); assay: immunoblot of lysates of cancer cell lines (h2009, ME-180), 0.5 ug/mL EA230 (FIG. 7)
T3 construct: Endogenous protein of h2009, h2087, ME-180 and colo201 cells and of lung, uterine cervix and esophagus cancer tissue sections; also called DESC1
T3 sequence: T1 sequence
Method: as §1

[4] = target: T3, human TMPRSS11E, endogenous, on cancer …; assay: flow cytometry on cancer cell lines h2009, h2087, ME-180, colo201 (FIG. 3)
Method: (§2) The TMPRSS11E-constantly expressing cells thus constructed were evaluated for binding to the parental strain thereof by flow cytometry. The anti-TMPRSS11E antibody diluted to an appropriate concentration was added to cells corresponding to 5×10⁵ and reacted for 1 hour on ice. The cells were washed by centrifugation. Then, FITC-labeled anti-human IgG antibodies were added thereto and reacted for 1 hour on ice. The cells were washed by centrifugation and then suspended in a medium containing 2 μg/mL propidium iodide, and the suspension was applied to FACS Calibur (Becton, Dickinson and Company). […] The chimeric antibodies and low-fucose chimeric antibodies had equivalent avidity. Next, avidity to various cancer cell lines was evaluated by flow cytometry.

[5] = target: T1, human TMPRSS11E, full-length, forced …; assay: flow cytometry on TMPRSS11E-expressing Ba/F3 cells, FITC anti-human IgG detection (FIG. 2)
Method: as §2

[6] = target: T1, human TMPRSS11E, full-length, forced …; assay: flow cytometry on TMPRSS11E-expressing SK-Hep-1 cells (FIG. 9)

binding result [1]: binds | binding result [2]: binds | binding result [3]: binds
B1: EA230 (mouse hybridoma antibody) (antibody, V domains shown)
VH: EVKLEESGGALVQPGGSMKLSCVASGFTVSNYWMSWVRQSPEKGLEWVAEVRLKSNNYVTHYAESVKGRFTISRDDSKSSVYLQMNNLRPEDTGIYYCTPFAYWGQGTLVTVSA
VL: QIVLTQSPAILSASPGEKVTLTCSANSSVSSSYLYWHQQKPGSSPKLWIYRTSKLASGVPARFSGSGSGTSYSLTISSMEAEDAASYFCHQWDTYPPTFGGGTKLEIK

binding result [4]: binds | binding result [5]: binds
B2: chi.TM191 (FTKO), low-fucose anti-TMPRSS11E mouse-human chimeric antibody (antibody, human IgG1, kappa, V domains shown)
VH: EVKLVESGGGLVKPGGSLKLSCAASGFTFSDYGMAWVRQAPGKGPEWVAFISNLAYSSYYADTVTGRFTISRENAKNTLYLEMSSLRSEDSAMYYCARRIFDYDGDGPYEDYWGQGTSVTVSS
VL: QIVLTQSPAIMSASPGEKVTLTCSATSSVSSRYVHWYQQKSGASPKLWIYGTSNLASGVPARFSGSGSGTSYSLTISSVEAEDAATYYCQQYHNDPPTFGAGTKLELKR
modifications: sugar chain free from alpha-1,6 core-fucose (produced in CHO_FTKO cells)
notes: also called low-fucose chimeric TM191

binding result [6]: binds
B3: TM191 (mouse hybridoma antibody) (antibody, V domains shown)
VH: B2 VH
VL: QIVLTQSPAIMSASPGEKVTLTCSATSSVSSRYVHWYQQKSGASPKLWIYGTSNLASGVPARFSGSGSGTSYSLTISSVEAEDAATYYCQQYHNDPPTFGAGTKLELK
notes: Mouse IgG1 kappa

binding result [4]: binds | binding result [5]: binds
B4: chi.TM191 (DG), anti-TMPRSS11E mouse-human chimeric antibody (antibody, V domains shown)
VH: B2 VH
VL: B2 VL
notes: Human IgG1/kappa constant regions, produced in DG44 CHO cells; also called chimeric TM191
